From the supplement of paper PMC11865577

Experiments:
Experiment in all cases: pull-down binding Z-score (relative to library population); higher = stronger binding
[1] = test system: G-clamp-N3 (biotin conjugate); details: RNA library: Library-1 (pre-miRNA loops + repeats)
Method in brief: (§1)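 Streptavidin beads with 100 pmol of biotin-conjugated small molecule were incubated for 60 min at 25 °C with 1 μg of heat-folded Cy5- or Cy3-end-labelled RNA library in phosphate/NaCl/KCl buffer. Bound RNA was eluted in hot SDS after three washes and hybridised to a DNA barcode microarray at 55.5 °C for 20 h. Each binding score is a library-referenced Z-score, computed after beads-only subtraction and a trimmed mean of barcoded replicate probes.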

[2] = test system: TO-3-N3 (biotin conjugate); details: RNA library: Library-2
Method in brief: as §1

[3] = test system: TO-3-N3-2 (biotin conjugate); details: RNA library: Library-2
Method in brief: as §1

TO-N3 (biotin conjugate) = details: RNA library: Library-2
Method in brief: as §1

[4] = test system: TO-N3-2 (biotin conjugate); details: RNA library: Library-2
Method in brief: as §1

Sequence	pull-down binding Z-score [1]	pull-down binding Z-score [2]	pull-down binding Z-score [3]	pull-down binding Z-score (TO-N3 (biotin conjugate))	pull-down binding Z-score [4]
GCUGCAGGCAAAGCUGGGG [hsa-mir-711]	-0.426	0.431	0.123	0.901	1.07
UAUAGUGUGUUUGAUUUGCACUGUA [hsa-mir-4703]	0.116	-0.156	-0.198	-0.424	-1.07
AGCAUGCACUUAAUGUGGGUGUAUGU [hsa-mir-668]	0.305	0.334	-0.205	0.184	-0.105
GUUGUUUUUAGAUAACUAAAUCGACAAC [hsa-mir-7-1]	0.109	0.721	0.0396	0.59	0.0256
UGUGCCCCGUACCGGACAGG [hsa-mir-7160]	-1.03	-0.0418	-0.0308	0.611	1.21
UUUCUCUUGUCUAAAAGAAAAGAAA [hsa-mir-518f]	-0.201	-0.761	-0.281	-0.8	-0.969
UGCAGUUAGUGAAGCAGCUUAGAAUCUACUGCC [hsa-mir-18b]	0.0114	0.192	0.625	0.989	1.47
UGUACAGGUGAGCGGAUGUUCUGCACA [hsa-mir-3120]	0.0407	1.53	0.681	1.67	1.57
GGCCGGUCAGGCA [hsa-mir-4689]	1.09	0.391	-0.106	0.576	0.682
GAGCUGGAAGGAGUGGGCCUGGCUC [hsa-mir-6847]	4.26	0.4	0.387	0.634	1.45
GAUGGAGGAAUCACAUGAAUUCAUC [hsa-mir-2115]	0.704	-0.415	-0.362	-0.627	-0.351
GCAGCCAGUCCUGUCUCACCGC [hsa-mir-6812]	-0.666	-0.19	-0.105	0.14	1.08
CAGUCAGUAAAUAUUUUUUUGUGAAUG [hsa-mir-511]	0.202	-0.305	0.0526	-0.146	-0.132
AGUGUUGUUUUUUCCCCCGCCAAUAUU [hsa-mir-92b]	-0.606	-0.34	0.29	-0.16	0.0118
GCUUCUGCUGCAUGAUCUCCGAGUCCCUGGGGGUAGAGAUGAUGGGGCACUGGGAGGU [hsa-mir-1282]	0.676	0.113	0.312	0.59	0.851
CUUCAGAGCAGGGUUUGGUCUGUGCUUCUCUG [hsa-mir-6719]	0.184	-0.415	-0.245	-0.222	0.452
AGAGCGUGGGCUGGGGUUCAGGGACACCCUCU [hsa-mir-1229]	1.46	1.15	0.738	1.57	1.86
UUGUGAUGUUUACCGUUUAAAUCCACGG [hsa-mir-125b-1]	-0.878	0.0416	-0.313	0.107	0.078
UAGAGGGUAAAAUUAAUAACCUUCUA [hsa-mir-628]	0.0533	0.214	0.114	-0.152	-0.888
CCACCCACCAGGGAGCUUUCCAUGGGCUGUGGG [hsa-mir-4725]	1.47	0.47	0.0654	0.567	0.788
UGGGUAGAAAGUAUUAUUCUAUUCA [hsa-mir-664b]	-0.0123	0.0201	-0.0975	-0.28	-0.83
GGGUCAGUGGCAGAGCCAGGCAGAUGCUGACCC [hsa-mir-6832]	2.93	0.349	0.267	0.45	0.72
GUGUUUAUUUUUUACUAAAUAG [hsa-mir-4766]	-0.918	-0.515	0.102	-0.451	-0.723
GGGUGAGAGUGCUUUCUGAAUGCAGUGCACCC [hsa-mir-500b]	0.8	0.297	0.131	0.52	0.985
CAGGCCAGGGGCAGACAGUGGACAGAGAACAGUGCCCAAGACCACUG [hsa-mir-378e]	1.13	0.426	0.736	1.27	1.73

Sequence	pull-down binding Z-score [1]	pull-down binding Z-score [2]	pull-down binding Z-score [3]	pull-down binding Z-score (TO-N3 (biotin conjugate))	pull-down binding Z-score [4]
GGUGCAAAGCCUGCCCGCCCC [hsa-mir-5090]	-0.81	-0.134	-0.136	0.254	1.09
CACUGAUUCAGUAAAAUACUCAGUG [hsa-mir-891a]	-0.252	-0.707	-0.845	-1.09	-1.35
UUUUUGUUUUUGAGACAGAGU [hsa-mir-4472-2]	-0.943	0.455	0.0401	0.274	-0.803
ACACUGCGCUGCCCCAGACCCACUGU [hsa-mir-210]	-1.18	0.364	0.103	0.83	0.683
AUUCUGGACACCAG [hsa-mir-147b]	-0.497	0.0367	0.387	0.311	0.326
GAGCCUUAAAGGAUGAGGUA [hsa-mir-4280]	-0.485	0.0602	0.063	0.362	0.54
ACGUCCAGUGGUGCAGAGGUAAUGGACGU [hsa-mir-1306]	2.13	0.0986	0.227	0.283	1.37
CCCAUUUAAAAUAUGGAA [hsa-mir-548ai]	-2.02	0.535	-0.0892	0.322	-0.0504
GACGAUUUGAAUUAAUAAAUUC [hsa-mir-579]	0.799	0.329	0.0871	0.153	-0.419
UCUUCUUUUGGAAGGAAGA [hsa-mir-3122]	0.729	-0.175	-0.532	-0.591	-1.53
UGUGACCUGGAGCAGCUCAGGAGGGCUUCCUGGGUGAGGUGGCAGGUUACA [hsa-mir-4311]	2.01	0.566	0.183	1.08	1.69
GAUUCUGAUUCAGGGACCAAGAUUC [hsa-mir-544a]	0.649	0.724	0.354	1.04	0.414
CUCCGGGUUGGGG [hsa-mir-1469]	0.177	-0.552	-0.476	-0.718	-0.557
AUAUUGACACUAUAACAAUAAUGUCAAUAU [hsa-mir-4795]	0.669	-0.438	-0.44	-0.874	-1.79
GAUGUUUCUGCCAGUUUAGCGUC [hsa-mir-505]	-0.68	0.0284	-0.0968	0.0886	0.324
UUACCCAACGUCUCUGAGUCUCGGUUUUGAGAGGGUGAGUAA [hsa-mir-7973-1]	0.981	0.0875	-0.0539	0.268	0.29
GAGUGUAAUUACGUACAUGCAGUAGCUC [hsa-mir-618]	0.413	0.405	0.182	0.341	0.152
CAGAGGCAUCGGGUCAG [hsa-mir-4746]	1.75	0.807	0.516	1.19	1.35
UGCCCUGGGGCCGUCCCUGCGCA [hsa-mir-1909]	-1.26	0.425	0.143	0.883	1.63
UUUUCCUGAGAAUAAGAGAAGGAAGG [hsa-mir-4455]	-0.563	-0.477	-0.0611	0.0683	0.75
AGAAGACCU [hsa-mir-378g]	0.213	0.421	0.241	0.403	0.244
GGUUUGCGCCUCAAGAAACC [hsa-mir-1255b-2]	0.436	-0.187	-0.306	-0.0954	0.521
GGUUGGCCGCUGACCCCCGCGGGGCCCCCGGCGGCC [hsa-mir-3195]	0.0226	-0.103	-0.293	0.0623	0.847
GACCUGGAUGUGUAGGAGCUAAGACACACUCCAGGGG [hsa-mir-920]	1.89	0.595	0.531	0.902	1.41
GGUUGGGGUGGGCUGCCUGUGGACCAAUC [hsa-mir-4525]	0.722	2.14	1.06	2.44	1.94

Sequence	pull-down binding Z-score [1]	pull-down binding Z-score [2]	pull-down binding Z-score [3]	pull-down binding Z-score (TO-N3 (biotin conjugate))	pull-down binding Z-score [4]
CCCACGGCCCUUGUCAGUGUG [hsa-mir-3190]	-1.69	0.791	-0.14	0.809	0.517
AAUGACUCAUAGUCAA [hsa-mir-4475]	-0.88	0.512	-0.157	0.374	-0.666
ACAAUUAUGAAAGAAAAGAAAUUGU [hsa-mir-3611]	0.163	-0.386	0.327	-0.636	-0.566
GUGGUUUCAGGGCAGUGAUGUUGCCCCUCGGAAGAUAACUAU [hsa-let-7b]	0.231	-0.324	-0.113	-0.128	0.235
UCAGGAUCUACUCAUGUCGUCUUUGG [hsa-mir-573]	-1.01	-0.404	-0.199	-0.165	0.472
AAACGUGCUCAGUGUCUUUAUAACAGGAAAGCCGUAAAC [hsa-mir-1272]	-0.626	0.0446	0.284	0.528	0.894
CAGUGGCAUCUGUCAUUG [hsa-mir-4663]	-0.635	-0.159	-0.425	-0.508	-0.784
CUCGCUGGGAGGUGUGCUAUCGUCUUCCCCGGGAG [hsa-mir-3689d-1]	0.293	-0.0907	-0.13	0.154	0.734
UCCUCAGACCAGGUGGCUCCCGAGCCACCCCAGGCUGUAGG [hsa-mir-2392]	-1.09	-0.0269	-0.183	0.743	1.75
CACCUCCCGGCCCGGAGCUG [hsa-mir-4734]	0.0744	-0.243	-0.473	-0.0704	0.527
GAGCCCUGAGGGGCUC [hsa-mir-6087]	1.46	0.542	-0.303	0.283	-0.191
CAGGGCGGUGCGGCAGCCGCCACC [hsa-mir-3621]	-0.214	0.771	0.241	1.07	1.24
UUUAGUAUGCCACAUUUCUAAA [hsa-mir-4282]	-1.54	-0.601	-0.374	-0.757	-0.699
GGGUGGGCGGGGGCGGCCGGUGGGAACCCCGCCCCGCCCCGCGCCCGCACUCACCC [hsa-mir-7108]	0.489	6.31	6.86	5.22	4.08
AGGUUGGCUGGGCCAGGCCUGACCU [hsa-mir-4722]	0.156	0.0532	-0.00273	0.435	1.16
GCCCGGGCACCGCCCCUU [hsa-mir-718]	-1.53	-0.0729	-0.109	0.203	0.973
GAGGUUGCAGUGAGCCAAGAUCGUG [hsa-mir-4459]	2.18	-0.147	0.278	0.743	1.33
UAUGUGAUUCUACUGCUCACUCAUAUA [hsa-mir-135a-1]	-0.239	0.402	-0.191	0.212	-0.519
ACUUUUUUUUUUUUUUUUUUUAAUGUUAAAAGU [hsa-mir-5588]	0.463	-0.429	0.823	-0.82	-0.107
UUUUGACAUUACUUUCAAAGACAAAA [hsa-mir-548f-1]	-1.58	-0.771	-0.214	-1.09	-1.23
AUUUUCACUUAAU [hsa-mir-302f]	0.103	-0.0598	-0.267	-0.27	-1.17
CCGGGCGCUGCUCUGACCCCUCGU [hsa-mir-187]	0.00395	0.166	0.116	0.875	1.39
UGGAUCACGCCGACAACACUGGUCU [hsa-mir-4635]	-0.474	0.534	0.163	0.823	0.76
CCAGUGCUGGGCUCAGACCCUGG [hsa-mir-150]	0.197	-0.0352	-0.226	0.0645	0.701
